One may read the EC50 as the concentration at which the effect is half-maximal. In general, Kd refers to the free concentration of one partner at which half of the binding sites on the other are occupied at equilibrium, for simple one-to-one binding. As usually defined, the koff is a measure of how fast the partners let go of each other. Read a low koff as slow dissociation. By kon is commonly meant a measure of how fast the partners come together. Higher therefore signals fast association.

This is an account of results in patent US20250163181A1.

Experiment [1] deals with human prothrombin wild-type (human) (UniProt P00734). Briefly: SPR, calculated from Kd.
The target in experiment [2] is kringle-2 of human prothrombin (amino acids 156-271) (human) (UniProt P00734). Nature of the experiment: SPR, calculated from Kd.
The target of experiment [3] is prothrombin variant S91A/Y93A (human) (UniProt P00734). Nature of the experiment: SPR, calculated from Kd.
Experiment [4] has as its target human prothrombin wild-type (human) (UniProt P00734). Briefly: ELISA, antigen immobilised, Hill fit.
In experiment [5] the target is kringle-2 of human prothrombin (amino acids 156-271) (human) (UniProt P00734). Briefly: ELISA, antigen immobilised, Hill fit. For orientation: In an ELISA, binding on a coated surface is turned into a signal by an enzyme label.
The target in experiment [6] is prothrombin variant S91A/Y93A (human) (UniProt P00734). Briefly: ELISA, antigen immobilised, Hill fit.
Experiment [7] deals with human prothrombin wild-type (human) (UniProt P00734). Briefly: SPR, AHP immobilised, HEPES buffer, 25 C. For orientation: Surface plasmon resonance follows binding to a sensor surface in real time, without labels.
In experiment [8] the target is kringle-2 of human prothrombin (amino acids 156-271) (human) (UniProt P00734). Nature of the experiment: SPR, AHP immobilised, HEPES buffer, 25 C.
For experiment [9], the target named is prothrombin variant S91A/Y93A (human) (UniProt P00734). Briefly: SPR, AHP immobilised, HEPES buffer, 25 C.
The target in experiment [10] is human prothrombin wild-type (human) (UniProt P00734). Nature of the experiment: SPR, calculated from Kd; prothrombin with 200 µM argatroban.
For experiment [11] the target is unchanged. Briefly: SPR, AHP immobilised; prothrombin with 200 µM argatroban (open form).

Turning to Antibody AHP (Prolytix AHP-5013), the ΔG in experiment [1] is -10.1 kcal/mol; in experiment [2], -10.3 kcal/mol; in experiment [3], -10.5 kcal/mol; in experiment [10], -10.1 kcal/mol. For the same substance, the EC50 was 0.195 µg/mL in experiment [4], 0.249 µg/mL in [5] and 0.185 µg/mL in [6]. The Kd in experiment [7] worked out at 38.3 nM; in experiment [8], 27.8 nM; in [9] it was 19.5 nM; in experiment [11], 37.4 nM. For the same substance, the koff amounted to 0.000136 s⁻¹ in experiment [7], 0.000128 s⁻¹ in experiment [8], 0.000123 s⁻¹ in experiment [9] and 0.000122 s⁻¹ in experiment [11]. Further, the kon came to 3540 M⁻¹ s⁻¹ in [7], 4600 M⁻¹ s⁻¹ in experiment [8], 6320 M⁻¹ s⁻¹ in experiment [9] and 3270 M⁻¹ s⁻¹ in experiment [11].
